Source: article doi:10.1101/744821 (bioRxiv, 2019)

B1: non-biotinylated HEG1 7-mer peptide (residues 1375-1381) (peptide, UniProt Q9ULI3 1375-1381, looked up)
peptide: SRRRDYF
B2: His6-EGFP-KRIT1(WT) FERM domain (417-736) (domain or fragment, human, UniProt O00522 417-736, looked up)
chain: KPYEKVRIYRMDGSYRSVELKHGNNTTVQQIMEGMRLSQETQQYFTIWICSENLSLQLKPYHKPLQHVRDWPEILAELTNLDPQRETPQLFLRRDVRLPLEVEKQIEDPLAILILFDEARYNLLKGFYTAPDAKLITLASLLLQIVYGNYESKKHKQGFLNEENLKSIVPVTKLKSKAPHWTNRILHEYKNLSTSEGVSKEMHHLQRMFLQNCWEIPTYGAAFFTGQIFTKASPSNHKVIPVYVGVNIKGLHLLNMETKALLISLKYGCFMWQLGDTDTCFQIHSMENKMSFIVHTKQAGLVVKLLMKLNGQLMPTERNS

Legend:
[1] = target: B2; assay: flow cytometry on beads
[2] = target: T1, biotinylated HEG1 cytoplasmic tail (a.a. 1274-1381) (UniProt Q9ULI3 1274-1381, biotin on the in vivo biotinylation peptide tag); assay: flow cytometry on beads
T1 sequence (looked up): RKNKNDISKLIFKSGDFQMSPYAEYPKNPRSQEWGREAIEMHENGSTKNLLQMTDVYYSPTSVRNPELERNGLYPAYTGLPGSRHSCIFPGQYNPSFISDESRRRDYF

Binder	IC50 [1]	EC50 [2]
B1	410 nM	
B2		32.4 nM
